From the DeepSol protein solubility set

Assay: soluble on expression in E. coli; label from the status in PepcDB or PDB records

Sequence | soluble on expression in E. coli
MRRVDQPRPPGTPFGLREQTTSNADAPARTAPPAHPAPERPTGMLGGLTRYVPGDRSGRPPAMPAAAETSRRPTTSARPLPYGGSGSAARMNEAAGHPLRMPQLPQLSDIERARFHSVTTDSQHLRPVRPRMPPPVGASPLRRSTALRPYHDVLSQWQRHYNADRNRWHSAWRQANSNNPQIETRTGRALKATADLLEDATQPGRVALELRSVPLPQFPDQAFRLSHLQHMTIDAAGLMELPDTMQQFAGLETLTLARNPLRALPASIASLNRLRELSIRACPELTELPEPLASTDASGEHQGLVNLQSLRLEWTGIRSLPASIANLQNLKSLKIRNSPLSALGPAIHHLPKLEELDLRGCTALRNYPPIFGGRAPLKRLILKDCSNLLTLPLDIHRLTQLEKLDLRGCVNLSRLPSLIAQLPANCIILVPPHLQAQLDQHRPVARPAEPGRTGPTTPALSPSAAGDRAGPSSSATASELLLTAALERIEDTAQAMLSTVIDEERNPFLEGAPSYLPGKRPTDVTTFGQVPALRDMLAESRDLEFLQRVSDMAGPSPRIEDPSEEGLARHYTNVSNWKAQKSAHLGIVDHLGQFVYHEGSPLDVATLAKAVQMWKTRELIVHAHPQDRARFPELAVHIPEQVSDDSDSEQQTSPEPSGHQ | soluble
AVRQLDRQGRDDVEVAVLAPQPELRIRPRFYEPDVQRMAAPLGELFAAVGVRFVQGSAQRIDVAGKRVEYRDAEGTLAQLDYDRLVLAAGSGVWRPASVAGIDAAFDVDQLEDALRLEAHLHALRDLPDSPARNTVVVAGGGFTGIETATEMPARLRAILGEKAALRVIVVDRGAAIGASMGADLSGLIAEASAELGVEWCLGRSVAAVDAEGVTLDDGQRIEAKTVVWTVGVRASTLTGQIPGERDAQGRLHVDRNLKVLGLDDVYATGDVARAATDDLGNHALMTCQHAIALGRSAGNNVAADLLGVEPIPYSQVKYVTCLDLGGWGAVFTEGWDRQVRFVREEGKKIKTEINGVWIYPPAADRAVALAAADPLIPVVA | not soluble
MGHHHHHHSHMVITIYYDVKVRFIVRGCGQYISYRCQEKRNTYFAEYWYQAQCCQYDYCNSWSSPQLQSSLPEPHDRPLALPLSDSQIQWFYQALNLSLPLPNFHAGTEPDGLDPMVTLSLNLGLSFAELRRMYLFLNSSGLLVLPQAGLLTPHPS | not soluble
MGSDKIHHHHHHMYDAQAVQTLSSCLLRLKEGKGIGTLVSEDEADLPKVMTRLKQFDPSKNGLSINEIVHLANALIGEHMSATTIQNWTKREVRDIIGVPHRGKKYSINQAAIIYLLDDLKHLFSLEETRELLTIVFKNPNIDEDDLISPLDFYLVYTQHAETSGPIELTEKRLRRSLERINAYRPETVHVLQLCLYARRISHLTHEAKQRLQHVLQT | not soluble
MIPRILGALLLCLACAAQAGVYTYIDAEGNRVYTDQPPSGRKAQRVELAPGNSVAPPGIRYRPPAAPLEVKPPAYQLLRILFPEPDATLRANSGDVIVTVTSEPALLPGHRYRLLLDGKPAGVPGRSPVFPLKNLDRGTHQVAVEIIDGDGMTVESTPSQPFHLHRVSIAGQPLPEVDTPLVSAIEPSER | not soluble
MADHNDRGRQGEEIALKHLRQQGYQIEALNWQSGRRELDIVASTSRELVVVEVKTRTEGFLLAPEEAVDARKRRLISESAHHYVRMYAIDLPVRFDVISVVLSADGSCKRIEHRENAFPLLLKRSQRSTPRRRRL | not soluble
LTSKLVQAGANVKVIMTESACRFVSPLTFQALSRHEVYTDTFKEQNPSVISHIDAADWADLIIVAPATANVIGKLANGIADDMLTTTLLAATAPVWIAPAMNVHMYDHPAVKRNISVLYQDGYCFIEPSEGYLACGYVGKGRLEEPENIVKLAEKHFAEETSAPLEGKHVVITAGPTREAIDPVRFFTNKSTGKMGYALAEAAVQLGARVILISGPVSLDQPKGLAEFIPVQSAADMREAVLSVYDASDIVIKTAAVADFTPKTVFDHKMKKQDGGMTLELKRTVDILKELGEKKKEQILVGFAAETQDIEHYARKKLAAKNLDLIVANDVKANGAGFGADTNIVTIFFKDGHKRELPIMSKLDVSFEILQEIAALSKQTGERS | not soluble
YASQSAGKEYYKHIEKIIVDNDVYEKSLEGERTFDINYQGIKINADLIKDGKHELTIVNKKDGDILITFIKKG | not soluble
MKTKPQAPHVDFYEKSELLHFLDCASKHENPQAFMFFRLLAFTGLRRGEALALQWSDINFETNELTVNKTQAVGKRWRTIIQTPKTNTSYRTIVLDPDTAQWLHKWKMTQARQCFELGFNANDPSQLVFTNQQNKLMSPSTVNYFNWSICKKYGLRHIKIHAFRHTFCTLAFEAHAGINEVSKTLGHADLKITEQIYLHVTKKQKNETASKLARYMSELLEHHHHHH | soluble
